# Results from PMC7806223.
# How the values were obtained:
# [1] = target: LH1 αβ heterodimer (Rhodopseudomonas palustris CGA009) (UniProt Q6N9L4); assay: cryo-EM structure; RC-LH1_(16) complex purified from the ΔpufW strain (no protein-W); diluted in IMAC buffer (20 mM tris-HCl pH 8.0, 200 mM NaCl, 0.03% β-DDM); 2.80 Å
# [2] = target: LH1 αβ heterodimer (Rhodopseudomonas palustris CGA009) (UniProt Q6N9L4); assay: cryo-EM structure; RC-LH1_(14)-W complex purified from the PufW-His strain; in IMAC buffer (20 mM tris-HCl pH 8.0, 200 mM NaCl, 0.03% β-DDM); 2.65 Å
substance,measurement,setting,value
LH1 αβ heterodimer (from UniProt Q6N9L4 1-50; Q6N9L5 2-53) (complex),stoichiometry N (αβ heterodimers in the closed ring),[1],16
same,stoichiometry N (αβ heterodimers in the open ring),[2],14
